Biological target: rab8a_human RAB8A (UniProt P61006)
Sequence (P61006 whole entry): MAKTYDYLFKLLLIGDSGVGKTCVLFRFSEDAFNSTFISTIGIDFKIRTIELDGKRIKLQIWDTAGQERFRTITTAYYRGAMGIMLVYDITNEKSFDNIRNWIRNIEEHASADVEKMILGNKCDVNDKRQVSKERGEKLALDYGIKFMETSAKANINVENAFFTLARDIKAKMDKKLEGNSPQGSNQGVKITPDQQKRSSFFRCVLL

Substance: Leucine-rich repeat serine/threonine-protein kinase 2 (Homo sapiens), Q5S007 R1441C
- effect of a mutation on the interaction: with no effect

From IntAct's records for PubMed 26824392
